The target in the experiment is extracellular region of human V158 FcγRIIIa fused with glutathione S-Transferase (GST) (human) (UniProt P08637). Put plainly: AlphaScreen competition. On the technique in general: In Alpha technology, singlet oxygen from a donor bead excites a nearby acceptor bead.
Chain of extracellular region of human V158 FcγRIIIa fused with glutathione S-Transferase (GST) (human) (P08637 17-208 F176V): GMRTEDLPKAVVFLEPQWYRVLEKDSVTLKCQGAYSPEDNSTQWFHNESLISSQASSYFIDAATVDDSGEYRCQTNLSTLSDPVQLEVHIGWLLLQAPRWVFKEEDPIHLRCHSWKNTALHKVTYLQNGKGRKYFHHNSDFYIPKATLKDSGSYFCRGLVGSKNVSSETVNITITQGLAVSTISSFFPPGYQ
Substance “F241E/F243Y/V262T/V264R alemtuzumab (antibody)” showed a FcγRIIIa Fold of 0.05 fold vs WT.

Regarding S239E/D265Q alemtuzumab (antibody), the FcγRIIIa Fold was determined as 0.05 fold vs WT.

Substance “V264E/N297D/I332E alemtuzumab (antibody)” registered a FcγRIIIa Fold of 0.05 fold vs WT.

In turn, “F241E/F243Q/V262T/V264E alemtuzumab (antibody)” gave a FcγRIIIa Fold of 0.07 fold vs WT.

For the substance “S239E/N297D/I332E alemtuzumab (antibody)”, the FcγRIIIa Fold was 0.06 fold vs WT.

A327L alemtuzumab (antibody) showed a FcγRIIIa Fold of 0.05 fold vs WT.

“S239D/D265V/N297D/I332E alemtuzumab (antibody)” returned a FcγRIIIa Fold of 0.03 fold vs WT.

The substance “F241E/F243R/V262E/V264R alemtuzumab (antibody)” registered a FcγRIIIa Fold of 0.05 fold vs WT.

In the case of “S239D/D265H/N297D/I332E alemtuzumab (antibody)”, the FcγRIIIa Fold was determined as 0.04 fold vs WT.

In turn, T299A alemtuzumab (antibody) had a FcγRIIIa Fold of 0.03 fold vs WT.

The substance “Y296N/N297D/I332E alemtuzumab (antibody)” showed a FcγRIIIa Fold of 0.04 fold vs WT.

In turn, L234I/L235D trastuzumab (antibody) returned a FcγRIIIa Fold of 0.07 fold vs WT.

The substance S267Q/A327S alemtuzumab (antibody) had a FcγRIIIa Fold of 0.03 fold vs WT.

As to F241L/V262I alemtuzumab (antibody), the FcγRIIIa Fold is 0.06 fold vs WT.

F241W/F243W alemtuzumab (antibody) displayed a FcγRIIIa Fold of 0.07 fold vs WT.

For the substance “F241R/F243Q/V262T/V264R alemtuzumab (antibody)”, the FcγRIIIa Fold amounted to 0.02 fold vs WT.

(Values after US20070224189A1.)
